Assay results published in PMC3568533.

Key:
[1] = molecular target: CYP3A4 K421A (N-terminus truncated) (human) (UniProt P08684)
[2] = molecular target: CYP3A4 wild-type (N-terminus truncated) (human) (UniProt P08684)
[3] = molecular target: CYP3A4 K96A (N-terminus truncated) (human) (UniProt P08684)
[4] = molecular target: CYP3A4 K421A (N-terminus truncated) (human) (UniProt P08684); assay: spectral titration
[5] = molecular target: CYP3A4 wild-type (N-terminus truncated) (human) (UniProt P08684); assay: spectral titration
[6] = molecular target: CYP3A4 K96A (N-terminus truncated) (human) (UniProt P08684); assay: spectral titration
[7] = molecular target: CYP3A4 K421A (N-terminus truncated) (human) (UniProt P08684); remark: listed apart in the source
[8] = molecular target: CYP3A4 wild-type (N-terminus truncated) (human) (UniProt P08684); remark: listed apart in the source
[9] = molecular target: CYP3A4 K96A (N-terminus truncated) (human) (UniProt P08684); remark: listed apart in the source

## Histidine-tagged recombinant human cyt b5 (commercial holo b5) (from UniProt P00167 1-134) (natural protein)
[1]
  Ratio of Vmax + b5/− b5, testosterone 6β-hydroxylation, CYP:CPR:cyt b5 1:2:1: 2
[2]
  Ratio of Vmax + b5/− b5, testosterone 6β-hydroxylation, CYP:CPR:cyt b5 1:2:1: 1.7
[3]
  Ratio of Vmax + b5/− b5, testosterone 6β-hydroxylation, CYP:CPR:cyt b5 1:2:1: 1.3

## reconstituted holo b5 (human cyt b5 made in-house) (from UniProt P00167 1-134) (natural protein)
[4]
  Kd: 287 nM
[5]
  Kd: 140 nM
[6]
  Kd: 346 nM

B1: rat cytochrome P450 reductase (enzyme)
chain: MGDSHEDTSATMPEAVAEEVSLFSTTDMVLFSLIVGVLTYWFIFRKKKEEIPEFSKIQTTAPPVKESSFVEKMKKTGRNIIVFYGSQTGTAEEFANRLSKDAHRYGMRGMSADPEEYDLADLSSLPEIDKSLVVFCMATYGEGDPTDNAQDFYDWLQETDVDLTGVKFAVFGLGNKTYEHFNAMGKYVDQRLEQLGAQRIFELGLGDDDGNLEEDFITWREQFWPAVCEFFGVEATGEESSIRQYELVVHEDMDVAKVYTGEMGRLKSYENQKPPFDAKNPFLAAVTANRKLNQGTERHLMHLELDISDSKIRYESGDHVAVYPANDSALVNQIGEILGADLDVIMSLNNLDEESNKKHPFPCPTTYRTALTYYLDITNPPRTNVLYELAQYASEPSEQEHLHKMASSSGEGKELYLSWVVEARRHILAILQDYPSLRPPIDHLCELLPRLQARYYSIASSSKVHPNSVHICAVAVEYEAKSGRVNKGVATSWLRAKEPAGENGGRALVPMFVRKSQFRLPFKSTTPVIMVGPGTGIAPFMGFIQERAWLREQGKEVGETLLYYGCRRSDEDYLYREELARFHKDGALTQLNVAFSREQAHKVYVQHLLKRDREHLWKLIHEGGAHIYVCGDARNMAKDVQNTFYDIVAEFGPMEHTQAVDYVKKLMTKGRYSLDVWS
[7]
  apparent K'm,CPR of TST 6β-hydroxylation at varying CPR concentrations: 70 nM
[8]
  apparent K'm,CPR of TST 6β-hydroxylation at varying CPR concentrations: 41 nM
[9]
  apparent K'm,CPR of TST 6β-hydroxylation at varying CPR concentrations: 91 nM
